Laboratory results: patent US20260022153A1 (AMIDEBIO, LLC, priority 2017, published 2026)

Tests used:
IGF1 receptor (IGF1R) = IGF1 receptor (IGF1R) (Homo sapiens, UniProt P08069); assay: Binding affinity of insulin analogs to the IGF1 receptor (IGF1R); conditions: in the absence of glucose
insulin receptor = insulin receptor (Homo sapiens, UniProt P06213); conditions: cited from earlier work
[1] = after one year in acidic formulations; cited from earlier work

Substance	Kd (IGF1 receptor (IGF1R)) [nM]	fold lower affinity for the insulin receptor compared to wildtype insulin (insulin receptor) [fold]	AsnA21 deamidation [1]
SEQ ID NO: 5: single chain insulin analog […] (FVDQHLCGSHLVEALYLVCGERGFFYTPKTYDGKGIVEQCCTSICSLYQLENYCG)	30.4		
SEQ ID NO: 7: single chain insulin analog […] (FVGQHLCGSHLVEALYLVCGERGFFYTPKTYDGKGIVEQCCTSICSLYQLENYCG)	26.8		
Wakayama mutation ValA3Leu: insulin with a valine to leucine substitution at position A3 of Insulin Chain A, a naturally occurring mutation		500	
insulin	5.66		20-30%
